To fix the notation:
B1: IGF2R domain 11 with S at position 1544 (receptor)
chain: NEHDDCQVTNPSTGHLFDLSSLSGRAGFTAAYSSKGLVYMSICGENENCPPGVGACFGQTRISVGKANKRLRYVDQVLQLVYKDGSPCPSKSGLSYKSVISFVCRPEAGPTNRPMLISLDKQTCTLFFSWHTPLACEQATHHHHHH
notes: Secreted from Pichia pastoris; also called E1544S
B2: IGF2R domain 11 with R at position 1544 (receptor)
chain: NEHDDCQVTNPSTGHLFDLSSLSGRAGFTAAYSRKGLVYMSICGENENCPPGVGACFGQTRISVGKANKRLRYVDQVLQLVYKDGSPCPSKSGLSYKSVISFVCRPEAGPTNRPMLISLDKQTCTLFFSWHTPLACEQATHHHHHH
notes: Secreted from Pichia pastoris; also called E1544R
B3: IGF2R domain 11 with I at position 1544 (receptor)
chain: NEHDDCQVTNPSTGHLFDLSSLSGRAGFTAAYSIKGLVYMSICGENENCPPGVGACFGQTRISVGKANKRLRYVDQVLQLVYKDGSPCPSKSGLSYKSVISFVCRPEAGPTNRPMLISLDKQTCTLFFSWHTPLACEQATHHHHHH
notes: Secreted from Pichia pastoris; also called E1544I
B4: IGF2R domain 11 with T at position 1544 (receptor)
chain: NEHDDCQVTNPSTGHLFDLSSLSGRAGFTAAYSTKGLVYMSICGENENCPPGVGACFGQTRISVGKANKRLRYVDQVLQLVYKDGSPCPSKSGLSYKSVISFVCRPEAGPTNRPMLISLDKQTCTLFFSWHTPLACEQATHHHHHH
notes: Secreted from Pichia pastoris; also called E1544T
B5: IGF2R domain 11 with N at position 1544 (receptor)
chain: NEHDDCQVTNPSTGHLFDLSSLSGRAGFTAAYSNKGLVYMSICGENENCPPGVGACFGQTRISVGKANKRLRYVDQVLQLVYKDGSPCPSKSGLSYKSVISFVCRPEAGPTNRPMLISLDKQTCTLFFSWHTPLACEQATHHHHHH
notes: Secreted from Pichia pastoris; also called E1544N
B6: IGF2R domain 11 with Y at position 1544 (receptor)
chain: NEHDDCQVTNPSTGHLFDLSSLSGRAGFTAAYSYKGLVYMSICGENENCPPGVGACFGQTRISVGKANKRLRYVDQVLQLVYKDGSPCPSKSGLSYKSVISFVCRPEAGPTNRPMLISLDKQTCTLFFSWHTPLACEQATHHHHHH
notes: Secreted from Pichia pastoris; also called E1544Y
B7: IGF2R domain 11 with D at position 1544 (receptor)
chain: NEHDDCQVTNPSTGHLFDLSSLSGRAGFTAAYSDKGLVYMSICGENENCPPGVGACFGQTRISVGKANKRLRYVDQVLQLVYKDGSPCPSKSGLSYKSVISFVCRPEAGPTNRPMLISLDKQTCTLFFSWHTPLACEQATHHHHHH
notes: Secreted from Pichia pastoris; also called E1544D
B8: IGF2R domain 11 with L at position 1544 (receptor)
chain: NEHDDCQVTNPSTGHLFDLSSLSGRAGFTAAYSLKGLVYMSICGENENCPPGVGACFGQTRISVGKANKRLRYVDQVLQLVYKDGSPCPSKSGLSYKSVISFVCRPEAGPTNRPMLISLDKQTCTLFFSWHTPLACEQATHHHHHH
notes: Secreted from Pichia pastoris; also called E1544L
B9: IGF2R domain 11 with W at position 1544 (receptor)
chain: NEHDDCQVTNPSTGHLFDLSSLSGRAGFTAAYSWKGLVYMSICGENENCPPGVGACFGQTRISVGKANKRLRYVDQVLQLVYKDGSPCPSKSGLSYKSVISFVCRPEAGPTNRPMLISLDKQTCTLFFSWHTPLACEQATHHHHHH
notes: Secreted from Pichia pastoris; also called E1544W
B10: IGF2R domain 11 with G at position 1544 (receptor)
chain: NEHDDCQVTNPSTGHLFDLSSLSGRAGFTAAYSGKGLVYMSICGENENCPPGVGACFGQTRISVGKANKRLRYVDQVLQLVYKDGSPCPSKSGLSYKSVISFVCRPEAGPTNRPMLISLDKQTCTLFFSWHTPLACEQATHHHHHH
notes: Secreted from Pichia pastoris; also called E1544G
B11: IGF2R domain 11 with P at position 1544 (receptor)
chain: NEHDDCQVTNPSTGHLFDLSSLSGRAGFTAAYSPKGLVYMSICGENENCPPGVGACFGQTRISVGKANKRLRYVDQVLQLVYKDGSPCPSKSGLSYKSVISFVCRPEAGPTNRPMLISLDKQTCTLFFSWHTPLACEQATHHHHHH
notes: Secreted from Pichia pastoris; also called E1544P
B12: IGF2R domain 11 with Q at position 1544 (receptor)
chain: NEHDDCQVTNPSTGHLFDLSSLSGRAGFTAAYSQKGLVYMSICGENENCPPGVGACFGQTRISVGKANKRLRYVDQVLQLVYKDGSPCPSKSGLSYKSVISFVCRPEAGPTNRPMLISLDKQTCTLFFSWHTPLACEQATHHHHHH
notes: Secreted from Pichia pastoris; also called E1544Q
B13: IGF2R domain 11 with M at position 1544 (receptor)
chain: NEHDDCQVTNPSTGHLFDLSSLSGRAGFTAAYSMKGLVYMSICGENENCPPGVGACFGQTRISVGKANKRLRYVDQVLQLVYKDGSPCPSKSGLSYKSVISFVCRPEAGPTNRPMLISLDKQTCTLFFSWHTPLACEQATHHHHHH
notes: Secreted from Pichia pastoris; also called E1544M
B14: IGF2R domain 11 with H at position 1544 (receptor)
chain: NEHDDCQVTNPSTGHLFDLSSLSGRAGFTAAYSHKGLVYMSICGENENCPPGVGACFGQTRISVGKANKRLRYVDQVLQLVYKDGSPCPSKSGLSYKSVISFVCRPEAGPTNRPMLISLDKQTCTLFFSWHTPLACEQATHHHHHH
notes: Secreted from Pichia pastoris; also called E1544H
B15: IGF2R domain 11 with F at position 1544 (receptor)
chain: NEHDDCQVTNPSTGHLFDLSSLSGRAGFTAAYSFKGLVYMSICGENENCPPGVGACFGQTRISVGKANKRLRYVDQVLQLVYKDGSPCPSKSGLSYKSVISFVCRPEAGPTNRPMLISLDKQTCTLFFSWHTPLACEQATHHHHHH
notes: Secreted from Pichia pastoris; also called E1544F
B16: IGF2R domain 11 G1619R (common human polymorphism) (receptor)
chain: NEHDDCQVTNPSTGHLFDLSSLSGRAGFTAAYSEKGLVYMSICGENENCPPGVGACFGQTRISVGKANKRLRYVDQVLQLVYKDGSPCPSKSGLSYKSVISFVCRPEARPTNRPMLISLDKQTCTLFFSWHTPLACEQATHHHHHH
notes: Secreted from Pichia pastoris
B17: IGF2R domain 11 K1545A (receptor)
chain: NEHDDCQVTNPSTGHLFDLSSLSGRAGFTAAYSEAGLVYMSICGENENCPPGVGACFGQTRISVGKANKRLRYVDQVLQLVYKDGSPCPSKSGLSYKSVISFVCRPEAGPTNRPMLISLDKQTCTLFFSWHTPLACEQATHHHHHH
notes: Secreted from Pichia pastoris
B18: IGF2R domain 11 S1543A (receptor)
chain: NEHDDCQVTNPSTGHLFDLSSLSGRAGFTAAYAEKGLVYMSICGENENCPPGVGACFGQTRISVGKANKRLRYVDQVLQLVYKDGSPCPSKSGLSYKSVISFVCRPEAGPTNRPMLISLDKQTCTLFFSWHTPLACEQATHHHHHH
notes: Secreted from Pichia pastoris
B19: IGF2R domain 11 Y1542A (receptor)
chain: NEHDDCQVTNPSTGHLFDLSSLSGRAGFTAAASEKGLVYMSICGENENCPPGVGACFGQTRISVGKANKRLRYVDQVLQLVYKDGSPCPSKSGLSYKSVISFVCRPEAGPTNRPMLISLDKQTCTLFFSWHTPLACEQATHHHHHH
notes: Secreted from Pichia pastoris
B20: IGF2R domain 11 S1596A (receptor)
chain: NEHDDCQVTNPSTGHLFDLSSLSGRAGFTAAYSEKGLVYMSICGENENCPPGVGACFGQTRISVGKANKRLRYVDQVLQLVYKDGAPCPSKSGLSYKSVISFVCRPEAGPTNRPMLISLDKQTCTLFFSWHTPLACEQATHHHHHH
notes: Secreted from Pichia pastoris
B21: IGF2R domain 11 T1570A (receptor)
chain: NEHDDCQVTNPSTGHLFDLSSLSGRAGFTAAYSEKGLVYMSICGENENCPPGVGACFGQARISVGKANKRLRYVDQVLQLVYKDGSPCPSKSGLSYKSVISFVCRPEAGPTNRPMLISLDKQTCTLFFSWHTPLACEQATHHHHHH
notes: Secreted from Pichia pastoris
B22: IGF2R domain 11 Q1569A (receptor)
chain: NEHDDCQVTNPSTGHLFDLSSLSGRAGFTAAYSEKGLVYMSICGENENCPPGVGACFGATRISVGKANKRLRYVDQVLQLVYKDGSPCPSKSGLSYKSVISFVCRPEAGPTNRPMLISLDKQTCTLFFSWHTPLACEQATHHHHHH
notes: Secreted from Pichia pastoris

T1 sequence (P01344 25-91): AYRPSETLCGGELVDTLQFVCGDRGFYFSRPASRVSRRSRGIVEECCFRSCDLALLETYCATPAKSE

The first assay addresses T1, Insulin-like Growth Factor II (IGF-II), recombinant human (human, UniProt P01344 25-91, biotinyl group (site not stated) when immobilised for SPR; not biotinylated as SPR analyte or in ITC).
T1 construct: mature; Bought as Biotinyl-IGF-II from GroPep for immobilisation on streptavidin chips; also called IGF2; Biotinyl-IGF-II
The assay is described as follows: SPR, steady-state KD relative to wild type domain 11. (SPR reads the build-up and loss of mass on a sensor chip optically.)
For the molecule B1, the “Relative Affinity” value is 5.24 fold vs wild type domain 11. Still for that read-out and setting: under B2 stands 7.33 fold vs wild type domain 11. On to B3, for which the “Relative Affinity” value was 2.43 fold vs wild type domain 11.

Take B4: the “Relative Affinity” value is 1.72 fold vs wild type domain 11.

Regarding B5, the “Relative Affinity” value is 0.88 fold vs wild type domain 11. Same read-out and setting: under B6 stands 1.8 fold vs wild type domain 11; under B7, 0.48 fold vs wild type domain 11; under B8, 2.02 fold vs wild type domain 11. With B9, the “Relative Affinity” value was 1.94 fold vs wild type domain 11.

For B10, the “Relative Affinity” value was 0.57 fold vs wild type domain 11. On the same count and under the same terms, in the case of B11 it was 0.49 fold vs wild type domain 11; in that of B12, 3.87 fold vs wild type domain 11. Still for that read-out and setting: in the case of B13 it was 2.75 fold vs wild type domain 11; in that of B14, 3.07 fold vs wild type domain 11. Still for that read-out and setting: in the case of B15 it was 1.83 fold vs wild type domain 11.

The target of the next assay is T1, Insulin-like Growth Factor II (IGF-II), …. The description is as above. This is another data set of the same source. As to the method: […]. Values are the mean±S.E.M. of three separate experiments.
Kinetic analysis by Surface Plasmon Resonance (SPR) was conducted on a BIAcore 3000 biosensor (BIAcore, Uppsala, Sweden) at 25° C. in HBS-EP (10 mM HEPES, pH 7.4, 150 mM NaCl, 3 mM EDTA, 0.005% surfactant P20) at a flow rate of 40 μl/min. […] Kinetic experiments consisted of a two minute injection of analyte followed by a 100s dissociation phase in running buffer, after which the binding surface was regenerated with a 2 minute injection of 2 M MgCl₂. A blank flow cell was used for in-line reference subtraction of changes due to differences in refractive index of running buffer versus sample and a buffer-only injection was used to subtract instrument noise and drift. Injections were performed in duplicate for each concentration and in a randomised order. Kinetic parameters were determined by global fitting of sensorgrams to a two-state (conformational change) binding model using BIAevaluation software version 4.0.1. In all cases the minor component made an insignificant contribution to the overall affinity and as such only the kinetic parameters of the major binding component were used. For each interaction the dissociation affinity constant (KD) was also calculated by fitting of the response of each concentration at equilibrium to a steady-state affinity model using BIAevaluation. In order to investigate the influence of ionic strength, kinetic experiments were conducted in HBS-EP running buffers containing the desired NaCl concentration. In each case, analyte samples were made up in the appropriate running buffer prior to injection.
Following purification, the binding of each mutant construct to IGF2 was assessed by SPR and compared to the wild type domain 11.
As to B16, the “Relative Affinity” value is 0.9 fold vs wild type domain 11. On to B17, for which the “Relative Affinity” value was 0.36 fold vs wild type domain 11. The same measure, in the same setting: under B18 stands 0.39 fold vs wild type domain 11; under B19, 0.16 fold vs wild type domain 11; under B20, 0.61 fold vs wild type domain 11.

Take B21: the “Relative Affinity” value was 0.11 fold vs wild type domain 11.

For B22, the “Relative Affinity” value was 0.8 fold vs wild type domain 11.

The values above are taken from patent US20130071366A1 (CANCER RESEARCH TECHNOLOGY, published 2013).
